Laboratory results reported in patent publication EP4624485A1, “PEPTIDE THAT TARGETS MACROPHAGES AND USES THEREOF” (Consejo Superior De Investigaciones Científicas, priority 2024, dated 2025).
Bridge positions count the residues as written; N and C are the ends. Ends that are not written are not given here. Peptide text beside a SMILES is read from it. * marks the point of attachment. 5FAM = O=C1OC2(c3ccc(O)cc3Oc3cc(O)ccc32)c2ccc(C(=O)*)cc21; Vert = not defined here; Ahx = NCCCCCC(=O)O

T1: human recombinant CD206 (Homo sapiens, UniProt P22897)
T1 construct: purchased R&D systems 2534-MR-050/CF
T1 sequence (P22897 19-1456): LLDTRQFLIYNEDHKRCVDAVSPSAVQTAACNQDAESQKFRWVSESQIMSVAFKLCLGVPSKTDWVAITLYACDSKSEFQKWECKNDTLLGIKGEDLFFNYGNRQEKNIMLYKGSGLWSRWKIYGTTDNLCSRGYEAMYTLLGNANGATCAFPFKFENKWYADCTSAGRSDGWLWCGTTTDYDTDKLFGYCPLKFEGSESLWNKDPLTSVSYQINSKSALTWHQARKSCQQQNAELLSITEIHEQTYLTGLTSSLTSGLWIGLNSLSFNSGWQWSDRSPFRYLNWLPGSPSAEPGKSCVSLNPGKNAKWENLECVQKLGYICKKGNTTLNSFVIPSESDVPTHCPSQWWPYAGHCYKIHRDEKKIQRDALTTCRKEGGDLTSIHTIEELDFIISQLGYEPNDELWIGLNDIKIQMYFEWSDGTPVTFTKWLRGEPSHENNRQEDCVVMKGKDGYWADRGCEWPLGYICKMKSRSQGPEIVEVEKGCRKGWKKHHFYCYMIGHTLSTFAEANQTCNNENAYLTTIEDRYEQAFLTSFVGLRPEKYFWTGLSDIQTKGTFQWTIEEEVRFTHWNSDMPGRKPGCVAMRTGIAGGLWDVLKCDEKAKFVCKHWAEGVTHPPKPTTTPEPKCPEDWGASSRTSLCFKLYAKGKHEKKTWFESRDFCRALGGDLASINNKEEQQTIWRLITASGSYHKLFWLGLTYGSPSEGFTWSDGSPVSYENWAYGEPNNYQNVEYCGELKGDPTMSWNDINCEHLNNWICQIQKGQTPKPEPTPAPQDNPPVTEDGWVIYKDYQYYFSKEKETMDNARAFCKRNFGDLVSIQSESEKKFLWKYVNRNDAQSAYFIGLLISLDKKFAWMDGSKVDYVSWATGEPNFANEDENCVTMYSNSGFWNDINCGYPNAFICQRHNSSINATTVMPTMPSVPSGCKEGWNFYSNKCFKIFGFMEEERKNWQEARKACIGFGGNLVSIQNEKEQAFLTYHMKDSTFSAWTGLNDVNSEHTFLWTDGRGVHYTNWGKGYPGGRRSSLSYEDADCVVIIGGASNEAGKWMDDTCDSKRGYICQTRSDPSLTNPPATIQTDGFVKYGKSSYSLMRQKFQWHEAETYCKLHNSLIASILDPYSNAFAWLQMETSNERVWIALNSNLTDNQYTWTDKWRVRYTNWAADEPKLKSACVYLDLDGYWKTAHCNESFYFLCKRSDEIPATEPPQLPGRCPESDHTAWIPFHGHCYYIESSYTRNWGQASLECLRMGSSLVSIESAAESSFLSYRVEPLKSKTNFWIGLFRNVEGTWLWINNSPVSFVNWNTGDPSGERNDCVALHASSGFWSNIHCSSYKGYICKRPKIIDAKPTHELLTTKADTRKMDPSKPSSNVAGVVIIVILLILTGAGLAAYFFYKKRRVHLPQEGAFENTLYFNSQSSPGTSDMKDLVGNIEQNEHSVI

T2: human recombinant CD206 (Cat # 2534-MR-050/CF from R&D systems) (human, UniProt P22897 19-1383, limits assumed)
T2 construct: Bought recombinant protein; also called Macrophage Mannose Receptor 1; PAH/CD206 multilayer
T2 sequence: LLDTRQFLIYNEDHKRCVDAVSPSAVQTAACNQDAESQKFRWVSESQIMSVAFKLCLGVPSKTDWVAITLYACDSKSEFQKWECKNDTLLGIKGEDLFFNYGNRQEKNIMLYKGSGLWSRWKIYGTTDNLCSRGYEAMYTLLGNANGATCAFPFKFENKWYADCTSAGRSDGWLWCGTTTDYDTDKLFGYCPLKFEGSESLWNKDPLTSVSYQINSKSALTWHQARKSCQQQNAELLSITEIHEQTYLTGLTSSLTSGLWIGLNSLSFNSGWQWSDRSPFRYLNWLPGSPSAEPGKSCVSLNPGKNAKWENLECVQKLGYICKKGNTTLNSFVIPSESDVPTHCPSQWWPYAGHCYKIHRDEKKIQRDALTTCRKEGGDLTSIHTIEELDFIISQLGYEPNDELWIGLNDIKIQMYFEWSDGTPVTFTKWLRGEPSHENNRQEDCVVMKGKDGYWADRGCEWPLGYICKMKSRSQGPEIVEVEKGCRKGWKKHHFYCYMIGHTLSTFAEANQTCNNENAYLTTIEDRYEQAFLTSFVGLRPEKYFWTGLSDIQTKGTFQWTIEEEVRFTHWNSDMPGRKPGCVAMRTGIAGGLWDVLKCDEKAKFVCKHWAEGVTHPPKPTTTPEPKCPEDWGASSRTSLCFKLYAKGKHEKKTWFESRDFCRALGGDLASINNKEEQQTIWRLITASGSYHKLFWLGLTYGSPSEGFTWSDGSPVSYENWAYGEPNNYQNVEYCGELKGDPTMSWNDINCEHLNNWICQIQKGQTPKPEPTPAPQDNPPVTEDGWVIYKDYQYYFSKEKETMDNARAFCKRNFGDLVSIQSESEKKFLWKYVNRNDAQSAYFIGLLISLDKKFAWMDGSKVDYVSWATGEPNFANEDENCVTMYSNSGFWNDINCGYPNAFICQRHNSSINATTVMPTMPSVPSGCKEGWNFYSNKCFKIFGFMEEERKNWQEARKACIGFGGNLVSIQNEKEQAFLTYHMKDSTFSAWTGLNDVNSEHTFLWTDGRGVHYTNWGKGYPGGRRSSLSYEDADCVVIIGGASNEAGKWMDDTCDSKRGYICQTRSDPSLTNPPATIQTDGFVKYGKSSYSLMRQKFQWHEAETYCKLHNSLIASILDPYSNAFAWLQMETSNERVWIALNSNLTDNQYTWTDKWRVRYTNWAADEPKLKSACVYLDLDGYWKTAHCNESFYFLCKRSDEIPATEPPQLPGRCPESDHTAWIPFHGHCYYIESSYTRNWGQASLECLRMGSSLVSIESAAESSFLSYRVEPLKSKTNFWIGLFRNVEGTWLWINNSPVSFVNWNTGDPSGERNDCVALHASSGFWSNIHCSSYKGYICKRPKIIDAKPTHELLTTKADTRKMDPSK

B1: mUNO (peptide)
peptide: CSPGAK
notes: also called mUNO peptide
B2: MACTIDE (peptide)
peptide: GCTKSIPPICSPGAK
modifications: disulfide 2-10
notes: Monocyclic through the C2-C10 disulfide; also called the peptide of the invention

What was measured:
[1] = mouse, in vivo
Protocol: (§1) Thirty nmoles of FAM-MACTIDE or FAM-mUNO were administered i.p., i.v. or orally and left to circulate for 24 h. At 24 h, the mice were sacrificed, and the organs were collected, fixed, cryoprotected, sectioned, and immunostained for FAM and CD206 (colocalization can be seen in the images as brigh areas) (A). The CD206/FAM colocalization indices were calculated from representative images from N=3 tumors using imaged (Mandler's tM2 index) (B, C, D) and the signal intensity per number of CD206+ TAMs was quantified using imaged for the i.p. administration (C). (E): Pharmacokinetics of i.p. and i.v. administered FAM-MACTIDE (30 nmoles) analyzed by detecting plasma fluorescence in the FAM channel at different timepoints (N=3). […] A: Structure of VERMACTIDE. B: VERMACTIDE, Vert-CtrlPep and DOX (doxorubicin) were incubated with primary human M2 macrophages (obtained from monocytes derived from human blood) at 30µM for one hour at 37°C, followed by 2 washes with medium. Then, the groups shown in red were irradiated with 10 J/cm^2 (irradiance: of 170 mW/cm^2, spot diameter: 0.5 cm).

[2] = biological target: T1, human recombinant CD206; assay: Quartz Crystal Microbalance (QCM) binding to PAH/CD206 multilayer; conditions: peptides 10µM in PBS, curve fitting, read-out: constant of association
Excerpt: To confirm the capacity of MACTIDE to bind to CD206, we evaluated binding to recombinant CD206 included in a viscoelastic film, using Quartz Crystal Microbalance (QCM). QCM is a powerful technique used to study label-free ligand-receptor interactions in solution (Baltus, R. E. et al., Langmuir 2007, 23 (7), 3880-3885), wherein peptide binding and dissociation is sensed through a mass increase or decrease on a resonating crystal surface functionalized with the receptor. Here, we evaluated the mass changes of MACTIDE when binding and dissociating in solution to CD206 immobilized on a viscoelastic film, deposited on a gold-modified quartz crystal resonating at 5 MHz. […]
The Quartz Crystal Microbalance (QCM) used was QCM200 system from Stanford Research Systems (Sunnyvale, CA, USA). […] Then, a baseline with 500µL of mQ at pH 8 was recorded, the measurement was paused and then 5µL of a 1mg/mL solution in PBS were added (human recombinant CD206, Cat # 2534-MR-050/CF from R&D systems, reconstituted with 50µL of mQ); final concentration of CD206 in the cell: 0.01 mg/mL. […] For peptides, 500µL of PBS were placed in the cell and the baseline was recorded, the measurement was then paused and 50µL of a 100µM solution of peptides in PBS were gently deposited on the cell and the measurement was resumed. […]

[3] = tested on: IL4-stimulated macrophages; assay: In vitro photodynamic therapy, MTT cell viability, IL4-stimulated macrophages; type: cell-based, human; conditions: with and without irradiation, 30µM
Protocol: as §1

[4] = tested on: (LPS + IFNy)-stimulated macrophages; assay: In vitro photodynamic therapy, MTT cell viability, (LPS + IFNγ)-stimulated macrophages; type: cell-based, human; conditions: with and without irradiation, 30µM
[5] = biological target: T3, Bovine Serum Albumin (BSA, Cat # A7906, Sigma-Aldrich) (bovine, UniProt P02769 25-607); assay: QCM, peptide in PBS on PAH/BSA control multilayer
T3 construct: Control protein deposited on PAH as the control multilayer; also called PAH/BSA control multilayer
T3 sequence (P02769 25-607 limits assumed): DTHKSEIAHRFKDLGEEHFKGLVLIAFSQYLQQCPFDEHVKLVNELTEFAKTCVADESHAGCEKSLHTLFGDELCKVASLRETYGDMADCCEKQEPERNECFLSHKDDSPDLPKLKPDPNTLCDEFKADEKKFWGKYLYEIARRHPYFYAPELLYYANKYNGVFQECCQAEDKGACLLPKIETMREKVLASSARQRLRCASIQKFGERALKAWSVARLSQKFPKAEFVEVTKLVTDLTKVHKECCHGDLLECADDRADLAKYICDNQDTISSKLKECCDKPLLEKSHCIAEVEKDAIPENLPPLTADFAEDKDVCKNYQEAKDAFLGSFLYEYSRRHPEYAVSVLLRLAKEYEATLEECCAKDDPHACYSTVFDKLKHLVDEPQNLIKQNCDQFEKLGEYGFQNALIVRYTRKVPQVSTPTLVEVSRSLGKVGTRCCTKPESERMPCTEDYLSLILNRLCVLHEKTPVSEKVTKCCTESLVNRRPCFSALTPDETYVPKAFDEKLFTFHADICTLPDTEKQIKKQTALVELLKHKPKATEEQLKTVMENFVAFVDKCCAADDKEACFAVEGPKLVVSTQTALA

[6] = biological target: T2, human recombinant CD206 (Cat # …); assay: QCM, PAH/CD206 multilayer, curves fitted with TraceDrawer
[7] = biological target: T2, human recombinant CD206 (Cat # …); assay: QCM (summary of example 3, Fig. 3)

| Molecule | kon at 10 µM [2] [M⁻¹ s⁻¹] | binding result [5] | Kd [6] [µM] | koff [6] [s⁻¹] | kon [6] [M⁻¹ s⁻¹] | further results |
| --- | --- | --- | --- | --- | --- | --- |
| CC[C@H](C)[C@@H]1NC(=O)[C@@H]2CCCN2C(=O)[C@@H]2CCCN2C(=O)[C@H]([C@@H](C)CC)NC(=O)[C@H](CO)NC(=O)[C@H](CCCCN)NC(=O)[C@H]([C@@H](C)O)NC(=O)[C@@H](NC(=O)CNC(=O)CCCCCNC(=O)c2ccc3c(c2)C(=O)OC32c3ccc(O)cc3Oc3cc(O)ccc32)CSSC[C@@H](C(=O)N[C@@H](CO)C(=O)N2CCC[C@H]2C(=O)NCC(=O)N[C@@H](C)C(=O)N[C@@H](CCCCN)C(=O)O)NC1=O [FAM-MACTIDE] ({5FAM-Ahx}-GCTKSIPPICSPGAK-OH; disulfide 2-10) | – | – | – | – | – | blood half-life [1]: the same as those obtained previously for FAM-mUNO |
| CC[C@H](C)[C@@H]1NC(=O)[C@@H]2CCCN2C(=O)[C@@H]2CCCN2C(=O)[C@H]([C@@H](C)CC)NC(=O)[C@H](CO)NC(=O)[C@H](CCCCN)NC(=O)[C@H]([C@@H](C)O)NC(=O)[C@@H](NC(=O)CN)CSSC[C@@H](C(=O)N[C@@H](CO)C(=O)N2CCC[C@H]2C(=O)NCC(=O)N[C@@H](C)C(=O)N[C@@H](CCCCN)C(=O)O)NC1=O [MACTIDE, GCTKSIPPICSPGAK] (H-GCTKSIPPICSPGAK-OH; disulfide 2-10) | 650 | – | – | – | – | – |
| CSPGAK [mUNO, CSPGAK] | 1400 | – | – | – | – | – |
| Vert-CtrlPep: control conjugate, Vert-Ahx- on AKPCGS (SEQ ID NO: 8) ({Vert-Ahx}-AKPCGS; reading uncertain) | – | – | – | – | – | toxicity [3]: no toxicity; toxicity [4]: no toxicity |
| B1 | – | no binding (tested: 10µM) | 6 | 0.0087 | 1400 | – |
| B2 | – | no binding (tested: 10µM) | 0.38 | 0.00025 | 650 | fold higher affinity (against mUNO) [7]: 15 fold; fold slower dissociation constant against mUNO [6]: 30 fold |
